Assay [1] has as its target T1, mouse CD36 fused with a FLAG-tag at its C terminus, overexpressed on HEK293 cells (mouse, UniProt Q08857 1-472).
T1 construct: whole, on cells; also called CD36-FLAG; not shown: C-terminal FLAG tag
Kind of assay: confocal microscopy of HEK293 cells overexpressing mouse CD36-FLAG, cultured with mouse AIM for 3 hours. As to the method: CD36 is a twice-transmembrane-type molecule, is expressed on adipocytes and macrophages, and is involved in intracellular internalization of many molecules including fatty acids, LDL, and the like. Thus, HEK293 cells in which mouse CD36 fused with a FLAG-tag at its C terminus was overexpressed were produced, and the cells were cultured with mouse AIM for 3 hours. Subsequently, the cells were collected, stained using an anti-AIM antibody and an anti-CD36 antibody, and observed under a confocal microscope.

For assay [2], the target named is T2, endogenous FAS (fatty acid synthase) in mouse adipocytes (mouse, UniProt P19096 1-2504).
T2 construct: also called cytosolic FAS
Kind of assay: precipitation of endocytosed HA-tagged rAIM from lysates of mouse adipose tissue with an anti-HA antibody, Western blot for FAS. As to the method:
Further, the endocytosed rAIM was precipitated using lysates derived from those adipose tissues to examine whether endogenous FAS was co-precipitated or not. That is, the presence of FAS in the precipitate was analyzed by Western blotting using HA-tagged rAIM and an anti-HA antibody.
For orientation: A western blot detects proteins with antibodies after separation by electrophoresis.

T1 sequence (Q08857 whole entry, the tested form may be a part): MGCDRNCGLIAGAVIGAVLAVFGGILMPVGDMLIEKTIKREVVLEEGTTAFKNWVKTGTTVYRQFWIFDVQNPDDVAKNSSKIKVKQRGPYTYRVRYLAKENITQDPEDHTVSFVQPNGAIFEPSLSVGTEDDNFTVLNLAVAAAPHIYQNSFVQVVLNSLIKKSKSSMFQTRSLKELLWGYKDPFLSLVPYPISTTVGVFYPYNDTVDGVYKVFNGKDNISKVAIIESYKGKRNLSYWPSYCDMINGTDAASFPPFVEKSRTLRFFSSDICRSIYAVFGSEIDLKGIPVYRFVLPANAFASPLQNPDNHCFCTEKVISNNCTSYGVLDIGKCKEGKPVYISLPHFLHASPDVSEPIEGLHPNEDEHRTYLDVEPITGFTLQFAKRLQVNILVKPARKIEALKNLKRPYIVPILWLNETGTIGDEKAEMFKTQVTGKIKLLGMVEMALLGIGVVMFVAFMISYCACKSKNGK
T2 sequence (P19096 whole entry): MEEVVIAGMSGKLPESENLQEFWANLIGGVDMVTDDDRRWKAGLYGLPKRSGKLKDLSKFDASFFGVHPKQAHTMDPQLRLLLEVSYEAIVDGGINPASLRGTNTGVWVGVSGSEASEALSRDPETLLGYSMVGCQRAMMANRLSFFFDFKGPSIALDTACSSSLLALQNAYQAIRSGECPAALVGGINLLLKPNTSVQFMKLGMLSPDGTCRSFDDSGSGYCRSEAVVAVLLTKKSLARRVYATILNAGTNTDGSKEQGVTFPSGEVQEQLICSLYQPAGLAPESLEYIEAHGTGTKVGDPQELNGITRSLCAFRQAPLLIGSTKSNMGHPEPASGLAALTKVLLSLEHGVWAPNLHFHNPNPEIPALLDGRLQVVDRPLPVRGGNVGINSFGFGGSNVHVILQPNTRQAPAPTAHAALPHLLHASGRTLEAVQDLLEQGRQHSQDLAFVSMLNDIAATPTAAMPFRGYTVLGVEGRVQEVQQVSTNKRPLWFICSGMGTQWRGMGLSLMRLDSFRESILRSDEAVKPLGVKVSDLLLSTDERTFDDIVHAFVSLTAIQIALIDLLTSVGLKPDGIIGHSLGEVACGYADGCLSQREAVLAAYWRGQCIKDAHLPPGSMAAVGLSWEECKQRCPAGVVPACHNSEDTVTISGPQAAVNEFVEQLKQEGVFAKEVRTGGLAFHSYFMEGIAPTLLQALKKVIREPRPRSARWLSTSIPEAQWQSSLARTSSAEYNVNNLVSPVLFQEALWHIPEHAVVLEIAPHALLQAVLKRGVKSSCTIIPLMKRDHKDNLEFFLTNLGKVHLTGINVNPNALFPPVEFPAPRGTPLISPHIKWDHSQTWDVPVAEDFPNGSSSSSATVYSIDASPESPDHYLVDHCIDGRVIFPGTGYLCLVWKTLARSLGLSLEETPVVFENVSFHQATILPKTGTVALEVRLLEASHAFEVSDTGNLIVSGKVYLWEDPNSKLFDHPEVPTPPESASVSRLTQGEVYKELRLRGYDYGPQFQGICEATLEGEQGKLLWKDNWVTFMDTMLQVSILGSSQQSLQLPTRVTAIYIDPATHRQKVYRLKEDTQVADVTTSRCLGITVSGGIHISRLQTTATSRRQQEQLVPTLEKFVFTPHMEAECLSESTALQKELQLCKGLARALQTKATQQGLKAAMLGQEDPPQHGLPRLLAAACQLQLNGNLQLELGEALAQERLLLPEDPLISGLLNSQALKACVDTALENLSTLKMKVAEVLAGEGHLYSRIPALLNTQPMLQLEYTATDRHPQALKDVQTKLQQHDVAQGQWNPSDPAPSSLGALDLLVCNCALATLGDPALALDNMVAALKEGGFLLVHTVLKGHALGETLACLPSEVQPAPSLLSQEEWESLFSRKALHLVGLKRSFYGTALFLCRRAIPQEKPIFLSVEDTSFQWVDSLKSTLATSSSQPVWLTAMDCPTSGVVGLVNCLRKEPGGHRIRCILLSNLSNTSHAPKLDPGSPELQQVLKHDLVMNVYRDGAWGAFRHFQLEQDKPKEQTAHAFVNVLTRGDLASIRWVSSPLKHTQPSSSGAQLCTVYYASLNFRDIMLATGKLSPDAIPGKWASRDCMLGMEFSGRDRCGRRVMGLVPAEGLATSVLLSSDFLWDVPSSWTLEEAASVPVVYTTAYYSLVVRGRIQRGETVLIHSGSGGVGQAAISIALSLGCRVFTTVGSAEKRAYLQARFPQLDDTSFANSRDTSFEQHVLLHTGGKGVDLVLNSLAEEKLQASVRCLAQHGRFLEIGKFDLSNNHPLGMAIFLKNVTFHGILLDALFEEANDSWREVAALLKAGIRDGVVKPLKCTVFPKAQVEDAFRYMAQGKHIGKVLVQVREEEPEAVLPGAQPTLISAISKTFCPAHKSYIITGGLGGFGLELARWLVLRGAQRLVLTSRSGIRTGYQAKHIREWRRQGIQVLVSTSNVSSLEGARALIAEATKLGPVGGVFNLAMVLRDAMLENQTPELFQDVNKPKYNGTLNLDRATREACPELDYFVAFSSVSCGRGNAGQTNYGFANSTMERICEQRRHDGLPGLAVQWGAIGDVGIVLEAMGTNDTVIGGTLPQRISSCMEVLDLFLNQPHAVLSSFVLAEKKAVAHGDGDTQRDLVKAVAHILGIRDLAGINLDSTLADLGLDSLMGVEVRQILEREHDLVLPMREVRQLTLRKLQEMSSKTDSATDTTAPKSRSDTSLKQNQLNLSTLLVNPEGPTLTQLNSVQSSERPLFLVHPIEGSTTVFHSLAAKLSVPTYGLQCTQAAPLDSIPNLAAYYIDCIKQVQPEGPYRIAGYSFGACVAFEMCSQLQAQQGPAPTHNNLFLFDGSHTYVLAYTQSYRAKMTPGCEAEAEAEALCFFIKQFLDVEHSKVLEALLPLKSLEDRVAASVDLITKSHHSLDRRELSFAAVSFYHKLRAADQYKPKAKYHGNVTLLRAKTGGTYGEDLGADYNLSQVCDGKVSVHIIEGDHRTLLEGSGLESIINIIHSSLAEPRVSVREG

B1: recombinant mouse AIM protein (other)
chain: ESPTKVQLVGGAHRCEGRVEVEHNGQWGTVCDDGWDRRDVAVVCRELNCGAVIQTPRGASYQPPASEQRVLIQGVDCNGTEDTLAQCELNYYVFDCSHEEDAGAQCENPDSDLLFIPEDVRLVDGPGHCQGRVEVLHQSQWSTVCKAGWNLQVSKVVCRQLGCGRALLTYGSCNKNTQGKGPIWMGKMSCSGQEANLRSCLLSRLENNCTHGEDTWMECEDPFELKLVGGDTPCSGRLEVLHKGSWGSVCDDNWGEKEDQVVCKQLGCGKSLHPSPKTRKIYGPGAGRIWLDDVNCSGKEQSLEFCRHRLWGYHDCTHKEDVEVICTDFDV
notes: no cleavage site is stated; also called Mouse rAIM; rAIM
On to B1, for which the binding result in assay [1] is “binds”.

B2: mouse AIM (apoptosis inhibitor of macrophage) fused with an HA-tag (other)
chain: ESPTKVQLVGGAHRCEGRVEVEHNGQWGTVCDDGWDRRDVAVVCRELNCGAVIQTPRGASYQPPASEQRVLIQGVDCNGTEDTLAQCELNYYVFDCSHEEDAGAQCENPDSDLLFIPEDVRLVDGPGHCQGRVEVLHQSQWSTVCKAGWNLQVSKVVCRQLGCGRALLTYGSCNKNTQGKGPIWMGKMSCSGQEANLRSCLLSRLENNCTHGEDTWMECEDPFELKLVGGDTPCSGRLEVLHKGSWGSVCDDNWGEKEDQVVCKQLGCGKSLHPSPKTRKIYGPGAGRIWLDDVNCSGKEQSLEFCRHRLWGYHDCTHKEDVEVICTDFDV
notes: also called HA-AIM; AIM tagged with HA; not shown: HA tag
For B2, the binding result in assay [2] is “binds”.
